Experimental data from the nanobody polyreactivity screen of Harvey et al. (2022).

assay: yeast display, Sf9 membrane polyspecificity reagent, FACS + sequencing; frameworks hold sequencing errors
How it was run: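 A synthetic nanobody library was expressed on Saccharomyces cerevisiae BJ5465 by galactose induction for 36–48 hours. The library was stained for 1 hour at 4 °C with 10% biotinylated, detergent-solubilized Sf9 membrane reagent and enriched with streptavidin microbeads before FACS. Low and high (top ~1%) gates were set on anti-HA fluorescence for expression and streptavidin fluorescence for reagent binding, and each polyreactivity label reflects the gate of origin.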

Sequence	polyreactivity (PSR sort gate)
QVQLVESGGGLVQAGGSLRLSCAASGSIIQGYVMGWYRQAPGKERELDAAISNSGSSTYYADSVKGRFTISRDNAKNTVYLQMNSLKPEDTAVYYCAVLRSYRGSKYGYWGQGTQVTVSS	high polyreactivity
QVQLVESGGGLVQAGGSLRLSCAASGSIIRTYAMGWYRQAPGKERELVAAISGSGSRTYYADSVKGRFTISRDNAKNTVYLQMNSLKPEDSAVYYCAADPGTPRYQFLWYGYWGQGTQVTVSS	low polyreactivity
QVQLVESGGGLVQAGGSLRLSCAASGSIIRTYVMGWYRQAPGKERELVAAITYSGGRTYYADSVKGRFTISRDNAKNTVYLQMNSLKPEDTAVYYCAARSPRPSAIYDYWGQGTQVTVSS	high polyreactivity
QVQLVESGGGLVQAGGSLRLSCAASGSIISANAMGWYRQAPGKESELVAAITSGDSTKYADSVKGRFTISRDNAKNTVYLQMNSLKPEDTAVYYCAVDRGVYKNRDGEEYWGQGTQVTVSS	low polyreactivity
QVQLVESGGGLVQAGGSLRLSCAASGSIISRTVMGWYRQAPGKEREFVATISRSGGITYYADSVKGRFTISRDNAKNTVYLQMNSLKPEDTAVYYCAAGKFVSFPSHYGYWGQGTQVTVSS	high polyreactivity
QVQLVESGGGLVQAGGSLRLSCAASGSIISVYVMGWYRQAPGTERELVASITSGASTNYADSVKGRFTISRDNETNTVYLQMNSLKPEDTAVYYCAARDWYDGFYYWGQGTQVTVSS	low polyreactivity
QVQLVESGGGLVQAGGSLRLSCAASGSIITINAMGWYRQAPGKERELVAAISKRGGSTYYADSVKGRFTISSDNGKHTVYLQLNSLKPEDTAFYYCNAREYIHWRGALGLFGSWGQGTQVNVSS	high polyreactivity
QVQLVESGGGLVQAGGSLRLSCAASGSIITSYTMGWYRQAPGKERELVAAISRSGGSTYYADSVKGRFTISRDNAKNTVYLQMNSLKPEDTAVYYCAARQSKLRRETPNDYWGQGTQVTVSS	high polyreactivity
QVQLVESGGGLVQAGGSLRLSCAASGSIIYRYAMGWYRQAPGKEMELVAAISTAGSTNYADSVKGRFTISRDNAKNTVYLLMNCLKPEDTAVYYCAAKSYRGRTQRSYGYWGQGTQVSVSS	low polyreactivity
QVQLVESGGGLVQAGGSLRLSCAASGSILADYAMGWDRQAPGKERELVAGISSGGSTNYADSVKGRFTISRDNAKNTVYLQMNSLKPEDTAVYYCNADQDFLFIGYLFDYWGQGTQVTVSS	low polyreactivity
QVQLVESGGGLVQAGGSLRLSCAASGSILADYAMGWYRQAPGKERELVAGISSGGSTNYADSVKGRFTISRDNAKNTVYLQMNSLKPEDTAVYYCNADQDFLFIGYLFDYWGQGTQVTVSS	low polyreactivity
QVQLVESGGGLVQAGGSLRLSCAASGSILAGYAMGWYRQAPGKERELVAAITTGGGSTYYADSVKGRFTISRDNAKNTVYLQMNSLKPEDTAVYYCAAYRKPGSWTWWVRGYGYWGQGTQVTVSS	low polyreactivity
QVQLVESGGGLVQAGGSLRLSCAASGSILARYAMGWYRQAPGKERELVAAISSRGGSTYYADSVKGRFTISRDNAKNTVYLQMNSLKPEDTAVYYCAAYVYLQVEYDYWGQGTQVTVSS	low polyreactivity
QVQLVESGGGLVQAGGSLRLSCAASGSILASYAMGWYRPAPGKERELVAAISWNGARSYYADSVKGRFTISRDNAKNTVYLQMNSLKPEDTAVYYCAGVRVGRTTFDYWGQGTQVTVSS	low polyreactivity
QVQLVESGGGLVQAGGSLRLSCAASGSILASYAMGWYRQAPGKERELVAAIRTSGDRTYYADSVKGRFTISRDNAKNTVYLQMNSLKPEDTAVYYCAATYRYRPYSYYQYYSWGQGTQVTVSS	high polyreactivity
QVQLVESGGGLVQAGGSLRLSCAASGSILAYNAMGWYRQAPGKERELVASITTSGGSTYYADSVKGRFTISRDNAKNTVYLQMNSLKPEDTAVYYCNAEYWLGRWLRYGYWGQGTQVTVSS	high polyreactivity
QVQLVESGGGLVQAGGSLRLSCAASGSILAYYAMGWYRQAPGKERELVADITSSGGITYYADSVKGRFTISRDNAKNTVYLQMNSLKPEDTAVYYCNADSWAIGGGSYPYDYWGQGTQVTVSS	low polyreactivity
QVQLVESGGGLVQAGGSLRLSCAASGSILDLNAMGWYRQAPGKERELVAAISYSGDSTYYADSVKGRFTISRDNAKNTVYLQMNSLKPEDTAVYYCNAASFSDQGTLNHFYDWGQGTQVTVSS	low polyreactivity
QVQLVESGGGLVQAGGSLRLSCAASGSILDPYAMGWYRQAPGKERELVADISSGASTNYADSVKGRFTISRDNAKNTVYLQMNSLKPEDTAVYYCAAVYVEYSEYRYIVELYYWGQGTQVTVSS	low polyreactivity
QVQLVESGGGLVQAGGSLRLSCAASGSILDYYVMGCSRQSPGKERELVAAIRGGGSTYYADSVKGRFTISRDNAKNTVYLQMNSLKPEDTAVYYCAKDSQTARDFDYWGQGTQVTVSS	low polyreactivity
QVQLVESGGGLVQAGGSLRLSCAASGSILEIYAMGWYRPAPGKEREFVASISWDVSSTYYADSVKGRFTISRDNAKNTVYLQMNSLKPEDTAVYYCATSLVWGLYDWYYDLSAAFDYWGQGTQVTVSS	low polyreactivity
QVQLVESGGGLVQAGGSLRLSCAASGSILEIYAMGWYRQAPGKEREVVASISWDVSSTYYADSVKGRFTISRDNAKNTVYLQMNSLKPEDTAVYYCATSLVWGLYDWYYDLSAAFDYWGQGTQVTVSS	low polyreactivity

Sequence	polyreactivity (PSR sort gate)
QVQLVESGGGLVQAGGSLRLSCAASGSILEPYAMGWYRQAPGKERELVATIRRGGSTYYADSVKGRFTISRDNAKNTVYLQMNSLKPEDTAVYYCAADRSVQVTFDYWGQGTQVTVSS	low polyreactivity
QVQLVESGGGLVQAGGSLRLSCAASGSILFKNAMGWYRQAPGKERELVAAISTSGGRTYYADSVKGRFTISRDNAKNTVYLEMNSLKPEDTAVYYCAAVYPRQVSQVWRDDYWGQGTQVTVSS	high polyreactivity
QVQLVESGGGLVQAGGSLRLSCAASGSILFYYAMGWYRQAPGKERELVAAITWRGGSTYYADSVKGRFTISRDNAKNTVYLQMNSLKPEDTAVYYCAADLYWYRYYGYDYWGQGTQVTVSS	low polyreactivity
QVQLVESGGGLVQAGGSLRLSCAASGSILGFNAMGWYRQPPGKERELVAAIRWSGDSTYADSVKGRFTISRDNAKNSVYLQMNSLKPEDTAVYYCNAVTTYGYWYKYDYWGQGTQVTVSS	low polyreactivity
QVQLVESGGGLVQAGGSLRLSCAASGSILGRYAMGWYRQAPGKERELVAVITSGGSTNYADSVKGRFTISRDNAKNTVYLQMNSLKPEDTAVYYCAVRPYELHRLADQPGGDDYWGQGTQVTVSS	low polyreactivity
QVQLVESGGGLVQAGGSLRLSCAASGSILGSYAMGWYRQAPGKERELVAAISWNGARTYYADSVKGRFTISRDNAKNTVYLQMNSLKPEDTAVYYCARVRVGRTTFDYWGQGTQVTVSS	low polyreactivity
QVQLVESGGGLVQAGGSLRLSCAASGSILGTYAMGWYRQAPGKERELVAAISWNGGSTYYADSVKGRFTISRDNAKNTVYLQMNSLKPEYTAVYYCAARQWSQGWYDYWGQGTQVTLSS	high polyreactivity
QVQLVESGGGLVQAGGSLRLSCAASGSILGWYAMGWYRQAPGKERQLVAAISYSGTSTYYADSVKGRFTISRDNAKNPVYLQMNSLNPEDTAVYYCNAFFSSRYYRVGSGYDYWGQGTQVTVSS	high polyreactivity
QVQLVESGGGLVQAGGSLRLSCAASGSILGYYAMGWYRPAPGKERELVAAISGRGGSTYYADSVKGRFTISRDNAKNTVYLQMNSLKPEDTAVYYCAVVWGSYYWGQGGGDYWGQGTQVTVSS	high polyreactivity
QVQLVESGGGLVQAGGSLRLSCAASGSILLNNAMGWYRQAPGKERELVAAISLSGGGSTYYADSVKGRFTISRDNAKNTVYLQMNSLKPEDTAVYYCNADDPYLYYDSYDYWGQGTQVTVSS	low polyreactivity
QVQLVESGGGLVQAGGSLRLSCAASGSILLYYTMGWYIQAPGKEWELVAAISWSGGSTYYADSVKGRFTISRDNAKNTVYLLMISLKPEDTAVYYCATRSVQGSYFAGYGYWGQGTQVTVSS	low polyreactivity
QVQLVESGGGLVQAGGSLRLSCAASGSILNAYAMGWYRQAPGKERELVAAITGSDGSTYYADSVKGRFTISRDNAKNTVYLQMNSLKPEDTAVYYCNADYSQPVYWWLDDYWGHGTQVTVSS	low polyreactivity
QVQLVESGGGLVQAGGSLRLSCAASGSILNFYAMGWYRQAPGKERELVAAISSGGSTNYADSVKGRFTISRDNAKNTVYLQMNSLKPEDTAVYYCAATGGDRYEAYYYWGQGTQVTVSS	low polyreactivity
QVQLVESGGGLVQAGGSLRLSCAASGSILNPNAMGWSRQAPGKERELVASISKSGGSTYYADSVKGRFTISRDNAKNTVYLQMNSLKPEDTAVYYCAAAFVSVRERYGYWGQGTQVTVSS	high polyreactivity
QVQLVESGGGLVQAGGSLRLSCAASGSILPLYAMGWYRQAPGKERELVATISNAGSTTYADSVKGRFTISRDNAKNTVYLQMHSLKPEVTAVYYCNAESEWGWVYVGYDYWGQGTQVTVSS	low polyreactivity
QVQLVESGGGLVQAGGSLRLSCAASGSILPRYGMGWYSQAPGKEREFVAAISWRGGRTYYADSVKGRFTISRDTAKHTVYVQMNSLKPEDTAVYYCAARAHIYTRLDYWGQGTEVTVSS	high polyreactivity
QVQLVESGGGLVQAGGSLRLSCAASGSILQSYAMGWYRQAPGKERELVAAISGSGGSTYYADSVKGRFTISRDNAKNTVYLQMNSLKPEDTAVYYCAKGPLYRTSRGEFGYWGQGTQVTVAS	low polyreactivity
QVQLVESGGGLVQAGGSLRLSCAASGSILQVYAMGWYRQAPGKERELFADINYTTGSTYYADSVKGRFTISRDNAKNTVYLQMNSLKPEDTAVYYCAKDFGFQSDSWGQGTQVTVSS	low polyreactivity
QVQLVESGGGLVQAGGSLRLSCAASGSILRKYAMGWYRQAPGKERELVAAISGSGGRTHYADSVKGRFTISRDNAKNTVYLQMNSLKPEDTAVYYCARRIKLGQRQGGYYWGQGTQVTVSS	high polyreactivity
QVQLVESGGGLVQAGGSLRLSCAASGSILRRNAMGWYRPAPGKERELFAGISRGGNTNYADSVNGRFTISRDNAKNTVYLQMNSLKPEDTAVYYCDTDGYGRWGRLTFTYWGQGTQVTVSS	low polyreactivity
QVQLVESGGGLVQAGGSLRLSCAASGSILRSYAMGWYRQAPGKERELVAVINGSGGRTYYADSVKGRFTISRDNAKNTVYLQMNSLKPEDTAVYYCAARRHTKRPGYDYWGQGTQVTVSS	low polyreactivity
